Bridge positions count the residues as written; N and C are the ends. Square brackets hold non-standard residues; d marks the D form. Ends that are not written are not given here. Aib = CC(C)(N)C(=O)O Where only a bound is given, the exact number is not on record here.

The assay deals with human glucagon receptor (human, UniProt P47871 26-477). The assay is described as follows: cell-based or functional assay.
Chain of human glucagon receptor (P47871 26-477): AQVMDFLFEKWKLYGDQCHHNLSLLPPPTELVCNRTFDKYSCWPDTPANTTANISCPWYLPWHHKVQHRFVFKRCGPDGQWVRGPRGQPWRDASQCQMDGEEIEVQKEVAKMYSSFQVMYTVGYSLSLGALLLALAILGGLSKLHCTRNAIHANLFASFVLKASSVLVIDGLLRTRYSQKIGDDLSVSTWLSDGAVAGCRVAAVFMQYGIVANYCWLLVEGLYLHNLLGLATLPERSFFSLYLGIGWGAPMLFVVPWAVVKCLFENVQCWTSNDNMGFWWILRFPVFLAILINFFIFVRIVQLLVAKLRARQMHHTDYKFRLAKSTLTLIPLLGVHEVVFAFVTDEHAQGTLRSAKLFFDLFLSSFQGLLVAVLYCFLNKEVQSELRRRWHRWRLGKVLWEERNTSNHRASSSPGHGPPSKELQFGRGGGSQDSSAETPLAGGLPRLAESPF
As for HSQGTFTSDYSKYLDCDRAQDFVQWLMNT [glucagon derivative peptide of SEQ ID NO: 2], the “In vitro activity (relative activity compared with SEQ ID NO: 1, %); cAMP EC50 in CHO cells expressing human GCG receptor” value worked out at 0.6%.

In the case of Y[Aib]QGTFTSDYSKYCDERRAKEFVQWLMNT (lactam 16-20) [glucagon derivative peptide of SEQ ID NO: 35], the “In vitro activity (relative activity compared with SEQ ID NO: 1, %); cAMP EC50 in CHO cells expressing human GCG receptor” value worked out at 17.7%.

Consider Y[Aib]QGTFTSDYSKYLCEKRAQDFVVWLMNT [glucagon derivative peptide of SEQ ID NO: 15], for which the “In vitro activity (relative activity compared with SEQ ID NO: 1, %); cAMP EC50 in CHO cells expressing human GCG receptor” value came to 1.1%.

For Y[Aib]QGTFTSDYSCYLDSRRAQDFVQWLMNT [glucagon derivative peptide of SEQ ID NO: 13], the “In vitro activity (relative activity compared with SEQ ID NO: 1, %); cAMP EC50 in CHO cells expressing human GCG receptor” value was found to be 5.2%.

For the molecule W[Aib]QGTFTSDYSKCLDERRAKDFVQWLMNT (lactam 16-20) [glucagon derivative peptide of SEQ ID NO: 30], the “In vitro activity (relative activity compared with SEQ ID NO: 1, %); cAMP EC50 in CHO cells expressing human GCG receptor” value was determined as 0.3%.

On to HSQGTFTSDYSKYLDSCEADDFVQWLMNT [glucagon derivative peptide of SEQ ID NO: 6], for which the “In vitro activity (relative activity compared with SEQ ID NO: 1, %); cAMP EC50 in CHO cells expressing human GCG receptor” value was < 0.1%.

On to Y[Aib]QGTFTSDYSKYLDCKRAKEFVQWLMNT (lactam 17-21) [glucagon derivative peptide of SEQ ID NO: 31], for which the “In vitro activity (relative activity compared with SEQ ID NO: 1, %); cAMP EC50 in CHO cells expressing human GCG receptor” value was found to be 6.3%.

For Y[Aib]QGTFTSDYSKCLDERRAKDFVQWLMNT (lactam 16-20) [glucagon derivative peptide of SEQ ID NO: 29], the “In vitro activity (relative activity compared with SEQ ID NO: 1, %); cAMP EC50 in CHO cells expressing human GCG receptor” value is 61.3%.

As for Y[Aib]QGTFTSDYSKYLDSCDAQDFVQWLINT [glucagon derivative peptide of SEQ ID NO: 8], the “In vitro activity (relative activity compared with SEQ ID NO: 1, %); cAMP EC50 in CHO cells expressing human GCG receptor” value was < 0.1%.

For the molecule Y[Aib]QGTFCSDYSKYLDSRRAQDFVQWLMNT [glucagon derivative peptide of SEQ ID NO: 42], the “In vitro activity (relative activity compared with SEQ ID NO: 1, %); cAMP EC50 in CHO cells expressing human GCG receptor” value was 37.9%.

Take W[Aib]QGTFTSDYSKYLDECRAKDFVQWLMNT (lactam 16-20) [glucagon derivative peptide of SEQ ID NO: 26]: the “In vitro activity (relative activity compared with SEQ ID NO: 1, %); cAMP EC50 in CHO cells expressing human GCG receptor” value was determined as 1%.

Turning to HSQGTFTSDYSKYLDSCEAQDFVQWLMNT [glucagon derivative peptide of SEQ ID NO: 5], the “In vitro activity (relative activity compared with SEQ ID NO: 1, %); cAMP EC50 in CHO cells expressing human GCG receptor” value came out at 0.3%.

Take Y[Aib]QGTFCSDYSKYLDERRAKEFVQWLMNT (lactam 16-20) [glucagon derivative peptide of SEQ ID NO: 38]: the “In vitro activity (relative activity compared with SEQ ID NO: 1, %); cAMP EC50 in CHO cells expressing human GCG receptor” value stood at 167%.

For the molecule HSQGTFTSDYSKYLDSCDAQDFVQWLMNT [glucagon derivative peptide of SEQ ID NO: 4], the “In vitro activity (relative activity compared with SEQ ID NO: 1, %); cAMP EC50 in CHO cells expressing human GCG receptor” value is < 0.1%.

As to Y[Aib]QGTFTSDYSKYLDCVRAQDFVQWLMRT [glucagon derivative peptide of SEQ ID NO: 17], the “In vitro activity (relative activity compared with SEQ ID NO: 1, %); cAMP EC50 in CHO cells expressing human GCG receptor” value came out at 23.2%.

For YXQGTFTSDYSKYLDSRRAQDFVQWLMNTC (aminoisobutyric acid (Aib) at position 2 (printed X)) [glucagon derivative peptide of SEQ ID NO: 44], the “In vitro activity (relative activity compared with SEQ ID NO: 1, %); cAMP EC50 in CHO cells expressing human GCG receptor” value turned out to be 75.4%.

As to HSQGTFTSDYSKYLDCERAQDFVQWLMNT [glucagon derivative peptide of SEQ ID NO: 3], the “In vitro activity (relative activity compared with SEQ ID NO: 1, %); cAMP EC50 in CHO cells expressing human GCG receptor” value came to 6.1%.

With Y[Aib]QGTFTSDCSKYLDSRRAQDFVQWLMNT [glucagon derivative peptide of SEQ ID NO: 43], the “In vitro activity (relative activity compared with SEQ ID NO: 1, %); cAMP EC50 in CHO cells expressing human GCG receptor” value came out at 1.6%.

In the case of YXQGTFTSDYSKYLDSRRAQDFVQWLMNT (aminoisobutyric acid (Aib) at position 2 (printed X)) [glucagon derivative peptide of SEQ ID NO: 33], the “In vitro activity (relative activity compared with SEQ ID NO: 1, %); cAMP EC50 in CHO cells expressing human GCG receptor” value was 108%.

On to Y[Aib]QGTFTSDYSKYLDSCDADDFVVWLINT [glucagon derivative peptide of SEQ ID NO: 10], for which the “In vitro activity (relative activity compared with SEQ ID NO: 1, %); cAMP EC50 in CHO cells expressing human GCG receptor” value was < 0.1%.

As to Y[Aib]QGTFTSDYSKCLDEKRAKEFVQWLMNT (lactam 16-20) [glucagon derivative peptide of SEQ ID NO: 24], the “In vitro activity (relative activity compared with SEQ ID NO: 1, %); cAMP EC50 in CHO cells expressing human GCG receptor” value worked out at 58%.

YSQGTFTSDYSKYLDSCEADDFVQWLMNT [glucagon derivative peptide of SEQ ID NO: 7]: the “In vitro activity (relative activity compared with SEQ ID NO: 1, %); cAMP EC50 in CHO cells expressing human GCG receptor” value is < 0.1%.

As for Y[Aib]QGTFTSDYSKYLDSRRACDFRLWLMNT [glucagon derivative peptide of SEQ ID NO: 18], the “In vitro activity (relative activity compared with SEQ ID NO: 1, %); cAMP EC50 in CHO cells expressing human GCG receptor” value is < 0.1%.

Consider Y[Aib]QGTFTSDYSKYLDCRRAQVFVQWLMRT [glucagon derivative peptide of SEQ ID NO: 16], for which the “In vitro activity (relative activity compared with SEQ ID NO: 1, %); cAMP EC50 in CHO cells expressing human GCG receptor” value is 4.2%.

Y[Aib]QGTFVSDYSKYLDECRAKDFVQWLMNT (lactam 16-20) [glucagon derivative peptide of SEQ ID NO: 27]: the “In vitro activity (relative activity compared with SEQ ID NO: 1, %); cAMP EC50 in CHO cells expressing human GCG receptor” value stood at 93.6%.

As to Y[Aib]QGTFTSDYSCYLDEKRAKEFVQWLMNT [glucagon derivative peptide of SEQ ID NO: 45], the “In vitro activity (relative activity compared with SEQ ID NO: 1, %); cAMP EC50 in CHO cells expressing human GCG receptor” value turned out to be 5.2%.

As to Y[Aib]QGTFCSDYSKYLDERRAKDFVQWLMNT (lactam 16-20) [glucagon derivative peptide of SEQ ID NO: 41], the “In vitro activity (relative activity compared with SEQ ID NO: 1, %); cAMP EC50 in CHO cells expressing human GCG receptor” value was 45.2%.

On to Y[Aib]QGTFTSDYSKYLCEKRAKEFVQWLMNT (lactam 16-20) [glucagon derivative peptide of SEQ ID NO: 19], for which the “In vitro activity (relative activity compared with SEQ ID NO: 1, %); cAMP EC50 in CHO cells expressing human GCG receptor” value came out at 12.1%.

Regarding Y[Aib]QGTFTSDYSKYLDEKRAKCFVQWLMNT (lactam 16-20) [glucagon derivative peptide of SEQ ID NO: 25], the “In vitro activity (relative activity compared with SEQ ID NO: 1, %); cAMP EC50 in CHO cells expressing human GCG receptor” value was 46.9%.

For the molecule Y[Aib]QGTFVSDYSKYLDERRAKDFVQWLMNTC (lactam 16-20) [glucagon derivative peptide of SEQ ID NO: 40], the “In vitro activity (relative activity compared with SEQ ID NO: 1, %); cAMP EC50 in CHO cells expressing human GCG receptor” value turned out to be 40.8%.

In the case of Y[Aib]QGTFTSDYSKYLDECRAKEFVQWLMNT (lactam 16-20) [glucagon derivative peptide of SEQ ID NO: 20], the “In vitro activity (relative activity compared with SEQ ID NO: 1, %); cAMP EC50 in CHO cells expressing human GCG receptor” value came out at 300%.

In the case of Y[Aib]QGTFTSDYSKYLDERRAKEFVQWLMNTC (lactam 16-20) [glucagon derivative peptide of SEQ ID NO: 37], the “In vitro activity (relative activity compared with SEQ ID NO: 1, %); cAMP EC50 in CHO cells expressing human GCG receptor” value worked out at 226%.

Consider W[Aib]QGTFTSDYSKYCDERRAKEFVQWLMNT (lactam 16-20) [glucagon derivative peptide of SEQ ID NO: 34], for which the “In vitro activity (relative activity compared with SEQ ID NO: 1, %); cAMP EC50 in CHO cells expressing human GCG receptor” value turned out to be 0.2%.

Y[Aib]QGTFTSDYSKYLDEKCAKEFVQWLMNT [glucagon derivative peptide of SEQ ID NO: 11]: the “In vitro activity (relative activity compared with SEQ ID NO: 1, %); cAMP EC50 in CHO cells expressing human GCG receptor” value turned out to be 4.6%.

For the molecule Y[Aib]QGTFTSDYSKYLDEKRCKEFVQWLMNT (lactam 16-20) [glucagon derivative peptide of SEQ ID NO: 22], the “In vitro activity (relative activity compared with SEQ ID NO: 1, %); cAMP EC50 in CHO cells expressing human GCG receptor” value is 148%.

Y[Aib]QGTFTSDCSKYLDERRAKEFVQWLMNT (lactam 16-20) [glucagon derivative peptide of SEQ ID NO: 36]: the “In vitro activity (relative activity compared with SEQ ID NO: 1, %); cAMP EC50 in CHO cells expressing human GCG receptor” value worked out at 9.9%.

Turning to W[Aib]QGTFVSDYSKYLDECRAKDFVQWLMNT (lactam 16-20) [glucagon derivative peptide of SEQ ID NO: 28], the “In vitro activity (relative activity compared with SEQ ID NO: 1, %); cAMP EC50 in CHO cells expressing human GCG receptor” value was < 0.1%.

For the molecule Y[Aib]QGTFTSDYSKYLDEKCAKEFVQWLMNT (lactam 16-20) [glucagon derivative peptide of SEQ ID NO: 21], the “In vitro activity (relative activity compared with SEQ ID NO: 1, %); cAMP EC50 in CHO cells expressing human GCG receptor” value was 57.8%.

With SQGTFTSDYSKYLDECRAKEFVQWLMNT (lactam 15-19) [glucagon derivative peptide of SEQ ID NO: 32], the “In vitro activity (relative activity compared with SEQ ID NO: 1, %); cAMP EC50 in CHO cells expressing human GCG receptor” value stood at 0.7%.

Take Y[Aib]QGTFTSDYSKYLDCKRAKEFVQWLMNT [glucagon derivative peptide of SEQ ID NO: 14]: the “In vitro activity (relative activity compared with SEQ ID NO: 1, %); cAMP EC50 in CHO cells expressing human GCG receptor” value came out at 18.1%.

On to Y[Aib]QGTFVSDCSKYLDERRAKDFVQWLMNT (lactam 16-20) [glucagon derivative peptide of SEQ ID NO: 39], for which the “In vitro activity (relative activity compared with SEQ ID NO: 1, %); cAMP EC50 in CHO cells expressing human GCG receptor” value is 3.7%.

As for Y[Aib]QGTFTSDYSKYCDEKRAKEFVQWLMNT (lactam 16-20) [glucagon derivative peptide of SEQ ID NO: 23], the “In vitro activity (relative activity compared with SEQ ID NO: 1, %); cAMP EC50 in CHO cells expressing human GCG receptor” value came out at 76.8%.

Regarding Y[Aib]QGTFTSDYSKYLDSCDAQDFVVWLINT [glucagon derivative peptide of SEQ ID NO: 9], the “In vitro activity (relative activity compared with SEQ ID NO: 1, %); cAMP EC50 in CHO cells expressing human GCG receptor” value is < 0.1%.

The values are drawn from patent US20250121086A1, “LIVER-TARGETED SUBSTANCE AND USE THEREOF” (HANMI PHARM. CO., LTD., priority 2021, published 2025).
